# Test results as given in publication doi:10.1101/2020.01.29.926220v1.
# Experiments:
# Assay in all cases: spectrophotometric hydrolysis, initial rates, Hanes-Woolf
# Assay type in all cases: biochemical, Yersinia mollaretii
# Conditions in all cases: 50 mM MES pH 6.0, 30°C
# [1] = system: C[C@@H](O)[C@H]1C(=O)N2C(C(=O)[O-])=C(SC3Cn4cnc[n+]4C3)[C@H](C)[C@H]12
# [2] = system: C[C@@H](O)[C@H]1C(=O)N2C(C(=O)O)=C(SCCN=CN)C[C@H]12
# [3] = system: C[C@@H](O)[C@H]1C(=O)N2C(C(=O)O)=C(S[C@@H]3CN[C@H](C(=O)Nc4cccc(C(=O)O)c4)C3)[C@H](C)[C@H]12
# [4] = system: C[C@@H](O)[C@H]1C(=O)N2C(C(=O)O)=C(S[C@@H]3CN[C@H](C(=O)N(C)C)C3)[C@H](C)[C@H]12
# [5] = system: C[C@@H](O)[C@H]1C(=O)N2C(C(=O)O)=C(S[C@@H]3CN[C@H](CNS(N)(=O)=O)C3)[C@H](C)[C@H]12
substance,measurement,setting,value
YEM-1 (Yersinia mollaretii ATCC 43969),kcat,[1],>16 s⁻¹
same,Km,[2],160 µM
same,kcat,[2],480 s⁻¹
same,kcat,[3],>400 s⁻¹
same,kcat,[4],>400 s⁻¹
same,kcat,[5],>100 s⁻¹
